The nature of data set [1]: Stability of mimetic peptide solution stored in direct contact with adhesive and insoluble tungsten (UPLC/DAD). The data set is classed as physicochemical. The note with it: insoluble tungsten, 3 days at 70° C., ammonium acetate pH4 buffer (20 mM)+0.02% tween 80, 45 μg/ml. Here is the method:
(§1) Peptide solutions were analyzed by LC/DAD/MS with Quattro premier XE Mass spectrometer from Waters.
The AAHAA (SEQ ID NO: 2) peptide was dissolved in ammonium acetate pH4 buffer (20 mM)+0.02% of tween 80 to a final concentration of 45 μg/ml. The AAHAA (SEQ ID NO: 2) peptide solution was stored in direct contact with the adhesive used to stake the needle to the syringe and with insoluble tungsten, a potential process residue, for 3 days at 70° C.
FIG. 3 is AAHAA (SEQ ID NO: 2) peptide ULPC/DAD chromatograms after 3 days at 70° C. in direct contact with two syringe components: (a) adhesive and (b) insoluble tungsten. (c) is chromatogram references.

A short description of data set [2]: Stability of mimetic peptide solution stored in direct contact with plunger stoppers (UPLC/DAD/MS). It counts as physicochemical. Here is the method:
as §1
The peptide AAWAA (SEQ ID NO: 1) was dissolved in ammonium acetate pH4 buffer (20 mM)+0.02% Tween 80 to a final concentration of 45 μg/ml. The obtained AAWAA (SEQ ID NO: 1) peptide solutions were stored in direct contact with a non-coated and an ETFE coated plunger stoppers for 30 days at 25° C./60% RH.
FIG. 1 is a UPLC/DAD chromatogram of AAWAA (SEQ ID NO: 1) pentapeptide in direct contact with a coated and a non-coated plunger stopper after 15 days (c, d) and 30 days (a,b) of storage at 25° C./60% RH. Chromatograms e and f are AAWAA (SEQ ID NO: 1) solutions references (without any direct contact with plunger stoppers),
FIG. 2 is the electrospray positiv (ESI+) mass spectra of (a) intact AAWAA (SEQ ID NO: 1) peptide (Retention time of 17.2 min) and (b) oxidized form of AAWAA (SEQ ID NO: 1)(Retention time of 17.1 min) detected after 30 days (25° C.) of contact between the non-coated plunger stopper and AAWAA (SEQ ID NO: 1) peptide solution.

For the substance “Ala-Ala-His-Ala-Ala (AAHAA; synthesized pentapeptide) [mimetic model pentapeptide]”, in data set [1], the “reaction with syringe component (degradation)” value is on record as “react with insoluble tungsten”.

As for “Ala-Ala-Trp-Ala-Ala (AAWAA; synthesized pentapeptide) [mimetic model pentapeptide]”, in data set [2] (after 30 days (25° C.) of contact with the non-coated plunger stopper), the “oxidized form (ESI+ mass spectra)” value is given as “detected”. For the same substance, the degradation yield result in data set [2] (non-coated vs ETFE coated plunger stopper, direct contact, 30 days at 25° C./60% RH, ammonium acetate pH4 buffer (20 mM)+0.02% Tween 80, 45 μg/ml) is “more important when the peptide is in direct contact with the non-coated plunger stopper”.

The values are drawn from patent publication US11156558B2, “Assessment of stability of biological product in prefilled syringes” (Becton Dickinson France, priority 2016, dated 2021).
